Results: patent US20190048089A1 (Janssen / Centocor, published 2019)

T1: cyno CD40 on cyno spleen B cells (Macaca fascicularis (cynomolgus), UniProt P25942 21-277 (human entry))
T1 chain: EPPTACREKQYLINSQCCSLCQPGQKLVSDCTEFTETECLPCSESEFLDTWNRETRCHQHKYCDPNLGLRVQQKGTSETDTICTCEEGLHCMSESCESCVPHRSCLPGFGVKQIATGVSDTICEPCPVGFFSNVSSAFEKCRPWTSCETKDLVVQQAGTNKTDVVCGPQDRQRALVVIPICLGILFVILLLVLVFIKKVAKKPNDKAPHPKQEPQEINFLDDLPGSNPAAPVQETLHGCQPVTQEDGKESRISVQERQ


What was measured:
[1] = molecular target: T2, human CD40 on cells (human tonsillar B cells, human dendritic cells, HEK-Blue CD40L cells) (human, UniProt P25942 21-277); experiment: cell-based or functional assay
[2] = molecular target: T1, cyno CD40 on cyno spleen B cells; experiment: cell-based or functional assay
[3] = molecular target: T2, human CD40 on cells (human tonsillar B …); experiment: cell-based or functional assay; remark: listed apart in the source
[4] = molecular target: T3, human CD40 (analyte in SPR) (human, UniProt P25942 21-193); experiment: SPR, ProteOn XPR36, mAb captured on anti-human IgG Fc, CD40 as analyte, 25 C, 1:1 Langmuir
T3 construct: also called huCD40
Protocol: Affinity of the antibodies to human CD40 was assessed using Surface Plasmon Resonance (SPR) using a ProteOn XPR36 system (BioRad). […] Approximately 5000 RU (response units) of mAbs were immobilized. The kinetic experiments were performed at 25° C. in running buffer (DPBS+0.01% P20+100 μg/ml BSA). To perform kinetic experiments, 200 RU of mAbs were captured followed by injections of analytes (human or cyno CD40) at 5 concentrations (in a 4-fold serial dilution). The association phase was monitored for 3 minutes at 50 μL/min, then followed by 15 minutes of buffer flow (dissociation phase). The chip surface was regenerated with two 18 second pulses of 100 mM H₃PO₄ (Sigma, Cat#7961) at 100 μL/min.
The collected data were processed using ProteOn Manager software. First, the data was corrected for background using inter-spots. Then, double reference subtraction of the data was performed by using the buffer injection for analyte injections. The kinetic analysis of the data was performed using a Langmuir 1:1 binding model. The results were reported in the format of Ka (On-rate), Kd (Off-rate) and KD (equilibrium dissociation constant).

[5] = molecular target: T3, human CD40 (analyte in SPR); experiment: affinity in benchmark table; method not restated (SPR ProteOn of Example 3 presumed); Table 14 benchmark table, not Table 12
[6] = molecular target: T3, human CD40 (analyte in SPR); experiment: affinity in benchmark table; method not restated (SPR ProteOn of Example 3 presumed)
[7] = molecular target: T1, cyno CD40 on cyno spleen B cells; experiment: cell-based or functional assay
[8] = molecular target: T2, human CD40 on cells (human tonsillar B …); experiment: cell-based or functional assay; remark: listed apart in the source
[9] = molecular target: T2, human CD40 on cells (human tonsillar B …); experiment: cell-based or functional assay; remark: listed apart in the source

IC50, mCD40L-driven DC IL-12p40 production [1] | IC50, sCD40L-driven DC IL-12p40 production [1] | IC50, sCD40L-driven cyno B-cell proliferation [2] | IC50, mCD40L-driven human B-cell proliferation [3] | IC50, sCD40L-driven human B-cell proliferation [3] | Kd [4] | koff [4] | kon [4] | Kd [5] | Kd [6] | IC50, B cell proliferation, soluble CD40L, cyno B-cells [7] | IC50, B cell proliferation, membrane CD40L, human B-cells [8] | IC50, B cell proliferation, soluble CD40L, human B-cells [8] | IC50, human DC IL-12p40 production, membrane CD40L [9] | IC50, human DC IL-12p40 production, soluble CD40L [9] | Binder
0.245 nM | 0.22 nM | 0.108 nM | 0.181 nM | 0.132 nM | 0.107 nM | 0.000307 s⁻¹ | 2.86e+06 M⁻¹ s⁻¹ | 0.0496 nM | – | – | – | – | – | – | C40B176 (antibody, human IgG1, lambda, IgG1sigma) heavy: EVQLVESGGGLVQPGGSLRLSCAASGFTFSSYAMSWVRQAPGKGLEWVSTINAAGGGTYYADSVKGRFTISRDNSKNTLYLQMNSLRAEDTAVYYCAKEGGKYYYYALDVWGQGTTVTVSSASTKGPSVFPLAPSSKSTSGGTAALGCLVKDYFPEPVTVSWNSGALTSGVHTFPAVLQSSGLYSLSSVVTVPSSSLGTQTYICNVNHKPSNTKVDKKVEPKSCDKTHTCPPCPAPEAAGASSVFLFPPKPKDTLMISRTPEVTCVVVDVSAEDPEVKFNWYVDGVEVHNAKTKPREEQYNSTYRVVSVLTVLHQDWLNGKEYKCKVSNKALPSSIEKTISKAKGQPREPQVYTLPPSREEMTKNQVSLTCLVKGFYPSDIAVEWESNGQPENNYKTTPPVLDSDGSFFLYSKLTVDKSRWQQGNVFSCSVMHEALHNHYTQKSLSLSPGK light: SYELTQPPSVSVSPGQTASITCSGDKLGDKYAAWYQQKPGQSPVLVIYQDSRRPSGIPERFSGSNSGNTATLTISGTQAMDEADYYCQAWASSTVVFGGGTKLTVLGQPKAAPSVTLFPPSSEELQANKATLVCLISDFYPGAVTVAWKADSSPVKAGVETTTPSKQSNNKYAASSYLSLTPEQWKSHRSYSCQVTHEGSTVEKTVAPTECS
– | – | – | – | – | – | – | – | – | 0.181 nM | 0.146 nM | 0.132 nM | 0.079 nM | 0.28 nM | 0.119 nM | Astellas/Kirin ASKP-1240 (antibody, human IgG4 S228P, kappa, V domains shown, Benchmark) VH: QLQLQESGPGLLKPSETLSLTCTVSGGSISSPGYYGGWIRQPPGKGLEWIGSIYKSGSTYHNPSLKSRVTISVDTSKNQFSLKLSSVTAADTAVYYCTRPVVRYFGWFDPWGQGTLVTVSS VL: AIQLTQSPSSLSASVGDRVTITCRASQGISSALAWYQQKPGKAPKLLIYDASNLESGVPSRFSGSGSGTDFTLTISSLQPEDFATYYCQQFNSYPTFGQGTKVEIKR
– | – | – | – | – | – | – | – | – | 0.00936 nM | – | 0.279 nM | 0.223 nM | 0.948 nM | 0.32 nM | Novartis CFZ533 (antibody, human IgG1, kappa, N297A, V domains shown, Benchmark) VH: QVQLVESGGGVVQPGRSLRLSCAASGFTFSSYGMHWVRQAPGKGLEWVAVISYEESNRYHADSVKGRFTISRDNSKITLYLQMNSLRTEDTAVYYCARDGGIAAPGPDYWGQGTLVTVSS VL: DIVMTQSPLSLTVTPGEPASISCRSSQSLLYSNGYNYLDWYLQKPGQSPQVLISLGSNRASGVPDRFSGSGSGTDFTLKISRVEAEDVGVYYCMQARQTPFTFGPGTKVDIRR
